Laboratory results reported in publication PMC6105031, “The crystal structure of KSHV ORF57 reveals dimeric active sites important for protein stability and function” (PLoS Pathogens, 2018).

B1: FLAG-tagged full-length ORF57 [Kaposi's sarcoma-associated herpesvirus (KSHV, HHV8)] / itself (parent complex)
chain: MVQAMIDMDIMKGILEDSVSSSEFDESRDDETDAPTLEDEQLSEPAEPPADERIRGTQSAQGIPPPLGRIPKKSQGRSQLRSEIQFCSPLSRPRSPSPVNRYGKKIKFGTAGQNTRPPPEKRPRRRPRDRLQYGRTTRGGQCRAAPKRATRRPQVNCQRQDDDVRQGVSDAVKKLRLPASMIIDGESPRFDDSIIPRHHGACFNVFIPAPPSHVPEVFTDRDITALIRAGGKDDELINKKISAKKIDHLHRQMLSFVTSRHNQAYWVSCRRETAAAGGLQTLGAFVEEQMTWAQTVVRHGGWFDEKDIDIILDTAIFVCNAFVTRFRLLHLSCVFDKQSELALIKQVAYLVAMGNRLVEACNLLGEVKLNFRGGLLLAFVLTIPGMQSRRSISARGQELFRTLLEYYRPGDVMGLLNVIVMEHHSLCRNSECAAATRAAMGSAKFNKGLFFYPLS

Variants of: B1
Assay: in vitro crosslinking assay (DSS) with anti-FLAG Western blot; HEK293 cells, 0.5 μg plasmid for WT and 2 μg for mutant, DSS 50 μM for 30 min; lanes 14 (WT) and 16 (mutant); parent: 0.15
In the case of chain 1 R270A, chain 1 R271A, the screen value is reported as 0.07.
